Experimental data: the DeepSol protein solubility set

experiment: soluble on expression in E. coli; label from the status in PepcDB or PDB records

Sequence	soluble on expression in E. coli
MGSDKIHHHHHHMTYPKYTQQALSRYNLPRLKRIATELGVTPTGDKRAADTWVNAIIIHQSTKLQKVDNQALAQAELDSYIADQAQAIAPEPLTIVEISFDHHEYYADDKLVASISHDDSHLTQRWVVMINDKEIFRANTLMHCDRFICNHYKDGSLPVQEKEATPSTIENQIMAHIFNECQNYGFEILDDGIYNNGVKLGQVGCTDGNWWVKRRYSVQQQYSNSVLDAVRSLSMLDVSNGGKSIFDEYILDQPLEQLTGDRLQRLLERAELVTA	not soluble
MAHHHHHHMCVSVCACARPCSLLISLFEKRQHGWGCCNSFTFEHVCSADAVRCLFFFVCDSPSSSLPPSLFTRHSPLLFSSCPFACPSSVHPQRQDNTRRRAEQPCAQALWIRRGINRIGNLLVPNDNYCWFEDFFTPVLESVQEAQRASRWKTHTAPSEFIEAMGAAIAKNHPDTCTSSLVYWCYRNGISVFSPAFTDGSMGDMIYFYNFSHKGLVVDPLEDVVRLRKLAAKEKGRNLAIVLGGGLPKHHLLRNVSMDAVVMVTTGLEADGCVSSGVLADDVACGLLREETETVRVQGDATVVFPLMLIAEKAATLEGAAA	not soluble
MSLDDYGIPQVAEINEQISVVWKDYGISPAPEAQDFEWVRRVYLDIIGRVPSVAELEEFQRDRGKDRKKNLVEKLLNDSAFTEEYARNWTTIWTNVLIGRNGGLDNNSQVSREGMQKYLRDSFARNKPYDQLVREVITSEGANAPGMPNFNGAVNFYMDKLAEDGVQATAKTAQIFLGVQVQCTQCHNHPFNSWKQDKFWELNAFFRQTRAQRDRGMEANEGHHHHHH	not soluble
MSLTKVLVIDPKIAGMSGDMFVSSLLALTNSYDLMDELILELEKLNNCNSFKVSVMDEKVNGISAKQLKIEIDEERIKNPDELKEIIINTSKNLMSEKGVKICENIINDLIEAEKKLHGDHFHLHEISSLDTVFDIVLPVLILEKNGFLDGKIYSTPPSLGNGRISMDHGIIPSPAPSTLEILCKHEIKCSKVDSEFELLTPTGAAILSNVTDEFTDSYPEIVLLKTAYGAGTKRMEHVPNVLRLVEGKTDEKIIEKTVILETNIDDISSEILAYAVERLLNEGAPDVFITPVFGKKNRPSSMISVICPYHVHEKFAKILIEETGTLGVRINHYDKIRAKRRMEKLTLDINGVNFGFDVKISDLNGEIVNIKPEFEDLKKIAKNLNIPLRDVLRHANNKIKEIYGFEGHHHHHH	soluble
MRQIKVVLIGGGTGLSVMARGLREFPIDITAIVTVADNGGSTGKIRDEMDIPAPGDIRNVIAALSDSESVLSQLFQYRFEENQISGHSLGNLLIAGMTNITNDFGHAIKALSKILNIKGRVIPSTNTSVQLNAVMEDGEIVFGETNIPKKHKKIDRVFLEPNDVQPMEEAIDALREADLIVLGPGSLYTSVISNLCVNGISDALIHSDAPKLYVSNVMTQPGETDGYSVKDHIDAIHRQAGQPFIDYVICSTQTFNAQVLKKYEEKHSKPVEVNKAELEKESINVKTSSNLVEISENHLVRHNTKVLSTMIYDIALELISTIPFVPSDKRKLEHHHHHH	soluble
MKTFGLLGGLAYPSTAEYYLKINRQVHATLGKHHSAPLWIHSFDFEPIAQAQASGSWTILEEKLLQAALELERLGCQGLAIASNTMHLLAPALEGALSIPLVHIADSVGEESSLKGYKKLALLGTLFTMEKDFYASRLQERFDLEVITPAKEERNLVHECIYRELVNNIFTEDSRRDFIQIIHGLKERGAEAVILGCTEIPLLLEGASSPLPLLDTMELHVGSIVQSILEI	not soluble
MSLRTPYEEVRDFFHFVDNYVAEIDLLAEELAQELEIEGGETYGILAAHLRSLYGIHITRTEAAGGLIRHFDPAGKTLALSSYMAAPTRCFQLALQIAQLHAGATVDRVLAGAGFRNAEAAEICRIGLHNYFAAALILPYGQFHRAAQELRHDLELLAVRFGASLEQVAHRLSTLQRPGMKGVPIFFAKIDRAGNITKRHSATRLQFARFGAACPLWNIHQAFESSDRIVRQLAETPDGVRYLSIATQIEKAGAGFNTERPRYAIALGCEISHAQNFVYADTLDLGNAASFKPIGISCRVCERVDCVQRAVPPLKRKLHFDHLSRGALPYQIAEGHHHHHH	soluble
MRIGHGFDVHKFGENGSGPLIIGGVRIPYEKGLLAHSDGDVALHAATDALLGAAALGDIGKLFPDTDPAFKGADSRGLLREAYRRILAKGYKLGNLDITIIAQAPKMAPHIPQMRVNLAEDLQCHMDDINVKATTTEQLGFTGRGEGIACEAVVLLVNVEQG	not soluble
MEKTYKLPIVLGTDPENTIRIDKLPPLKGAFAVHIHESETENNAHIKLEYGDTEYCLSLYVFNYPKFLRNETVRVRNYDLWPKWIMFAARLPNGKLHPKSGGKVYREDAVIVGEGNYELENPFISFKYSDGRILNFRIEFYRYLRYKSPKYGPSFRSEYWFIGVD	not soluble
MSTPVLELRGIVKTFGATRALDGASLRVAAGSVHGLVGENGAGKSTLIKVLAGIHRPDAGSLLLDGQPHGHFSPRQVERLGIGFIHQERLLPARFTVGEALFFGHERRFGPLLDRRSQQREAARLLDDYFGLRLPANALIGELSSAEQQMVQIVRALLIKPRVLVFDEPSVALVQREVERLLRIVQRLRDDGLAIVYISHYLQEIEALCDRVTVLRNGRDVAEVSPRNTSLEQITRLMVNREVGELYPKVAVPAGALLLDVRGLGRARAYQGIDLQVRRGEIVGLTGLVGSGAKELLRSLFGLAPPDSGEVRLDGQPLSLRSPREAVAQGVALMPEERRRQGVALDLSVQENTTLAALSRFVRLGLLSPARERHTTLELIERLRIKAHGAHAKVRQLSGGNQQKVALAKWFARCSSLYLLDEPSVGIDVGAKVEIYRLIGELVKEGAGVLILSSDLPELIGLCDRIHVMHRGAIAARFAAGEANSDRLLAVATGAQRAQNEERPFYAYAIAI	not soluble
MSLSGSITVPNYSDTNRVPGLYFALDNSKANTASVTRRVLILGQTIAGSGAPNVATLSAGYSDAVAKYGAASQCARMVSAYRAIDAQGEVWVLPLADDTSAQAATGKVTVSGTATSAGTLPLYVGDQLISVAVDTGDTAATVAANIATATAAVSGLPAGASAAEGVVTFTALNKGQSGNDILLGVALLGTAGGQAVPDGLTIALTQFSGGTADPTTLATVLALQGERVYDLIIHPYTDSGSLTALKIWLNDTAGRWSPMLQLYGHAITAYRGTYGAATSLGLAQNDQHATIMPIGDSPSDPLTWAAQIGARTAMSMRSNPALPITAVSLTVMPPTDVGRYSSEQRNSLLYDGLSTFTVDDSGTVNIERLVTTYQTNASGLPDNSYLDIETMLTAEICMQDMRSYLAGQYGGCILVADGTKISAGAKATTAKLIGKACASRYRWQTTQLWVQNADNFAANIVAENAGNGVVKLLMPYDFANQLRIIAGSVQFVKSEGHHHHHH	soluble
MGSDKIHHHHHHMKIGVLSQFPELYSTRRLVEACESRGHEAWVINPINCYMNINSVKPSIHLEGEEVPMFDAIIPRIHASVTFYGCAVVRQFEMMGVFAANDSISIARSRDKLRALQLLSRKGIGMPVTGFANKPNNIPDLINMVGGAPLVIKLLEGTQGIGVVLAETRKAAESVIEAFLGLKANIMVQEYIKEANGSDIRCFVVGDKVVAAMRRQGPEGDFRSNLHLGGSAEPVKITPQERKSAVAAAKAMGLVVAGVDILRSARGPLVLEVNSAPGIEGIEQATGIKVAEPIVEYIEKVVAARRANHQVIA	not soluble
NSLDNQVRLLLEDSVPKYNASYFLESKTSEINRRVEALQAVDNKVQLTEQAMQVNEQLASISTVLKSNKMSSEFYQLLESEAGLASLLEKYVDMISTRIDQTRRVDQLMEQINWLHQDIRSELKPVRQEVHWQIERVNDSKEIQNLLVQLSTLQRVIDIESAVYDMAIDVAGASMPEQVDNGMKVIHFRLMDLQESSTTLMNQPTSIAYKQLLQELVVVLSPEGAFDKQLMSLVTLNGDIQKIQEQIALSMEAIHQQIGELVSTADQTFKQVKSETAERVSYGN	not soluble
SLKSGCSARQVCAGNTHFAVVTVEKELYTWVNMQGGTKLHGQLGHGDKASYRQPKHVEKLQGKAIHQVSCGDDFTVCVTDEGQLYAFGSDYYGCMGVDKVAGPEVLEPMQLNFFLSNPVEQVSCGDNHVVVLTRNKEVYSWGCGEYGRLGLDSEEDYYTPQKVDVPKALIIVAVQCGCDGTFLLTQSGKVLACGLNEFNKLGLNQCMSGIINHEAYHEVPYTTSFTLAKQLSFYKIRTIAPGKTHTAAIDERGRLLTFGCNKCGQLGVGNYKKRLGINLLGGPLGGKQVIRVSCGDEFTIAATDDNHIFAWGNGGNGRLAMTPTERPHGSDICTSWPRPIFGSLHHVPDLSCRGWHTILIVEKVLNSKTIRSNSSGLSIGTVFQSSS	soluble
AVELAEEVTNLKQVRTMLEAIIQSSDEAISVVDENGIGLLINKAYTKMTGLSEKEVIGKPANTDISEGESMHLKVLETRRPVRGVRMKVGPNEKEVIVNVAPVIVDGILKGSVGVIHDVS	not soluble
MGNQSTSSKGSDTKKEQITVKHQLDKNGTKVPKNPKKVVVFDFGSLDTLDKLGLDDIVAGLPKQVLPKYLSKFKDDKYADVGSLKEPDFDKVAELDPDLIIISARQSESYKEFSKIAPTIYLGVDTAKYMESFKSDAETIGKIFDKEDKVKDELANIDHSIADVKKTAEKLNKNGLVIMANDGKISAFGPKSRYGLIHDVFGVAPADQNIKASTHGQSVSYEYISKTNPDYLFVIDRGTAIGETSSTKQVVENDYVKNVNAVKNGHVIYLDSATWYLSGGGLESMTQMIKEVKDGLEKLEHHHHHH	soluble
SAEGEEEGGDVLISVGHANVLGYTLREFLQLLQHITIGTVLQIKVYRDFINIPEEWQEIYDLIPEAKFPVTSTPKKIELAKDESFTSSDDNENVDLDKRLQYYRYPWSTVHHPARRPISISRDWHGYKKKNHTISVGKDINCDVMIHRDDKKEVRAPSPYWIMVKQDNESSSSSTSSTSDAFWLEDCAQVEEGKAQLVSKVG	soluble
MTIFNKIDYNYYKLINYPIMMVHDEWLGDLTGVNQVSFRRLRETSSTRNQLNKILRQEIHDKISGVELSDINKEGFLYQSIGKIRLLALSSALFDIQCPDYIFSRLYRETLIREIGYQNVKQLSFYWQGGQCKPEYGEERFCAELIKYGAGNLEWLFADNPLWTIVKYLLPKSGEIKPTHINDLFLNRLNKILLPYETL	not soluble
MELMKDDRYSPDWKNIAITKKQSVHWVCEWCGVQCLKPGEGKGLLKEERYRLRMAVHHCDYDPGNNSPSNLMAVCSPCHLYYHRRQQGNITPGQLKITINLEHHHHHH	soluble
CEGGVDMQQSQVQLQCPLTPPRGLQVSIQGEAVAVRPGEDVLFVVRQEQGDVLTTKYQVDLGDGFKAMYVNLTLTGEPIRHRYESPGIYRVSVRAENTAGHDEAVLFVQV	soluble
MRNRTLADLDRVVALGGGHGLGRVLSSLSSLGSRLTGIVTTTDNGGSTGRIRRSEGGIAWGDMRNCLNQLITEPSVASAMFEYRFGGNGELSGHNLGNLMLKALDHLSVRPLEAINLIRNLLKVDTHLIPMSEHPVDLMAIDDQGHEVYGEVNIDQLTTPIQELLLTPNVPATREAVHAINEADLIIIGPGSFYTSLMPILLLKEIAQALRRTPAPMVYIGNLGRELSLPAANLKLESKLAIMEQYVGKKVIDAVIVGPKVDVSAVKERIVIQEVLEASDIPYRHDRQLLHNALEKALQALGLEHHHHHH	not soluble
MGHHHHHHSHMRKLTALFVASTLAMGAANLAHAAETTTAAPADAKPMMQHKGKFGPHHDMMFKNLNLTDAQKQQIRDIMKAQREQMKRPLLEERRAMHDIIASDTFDKAKAEAQITKMEAQRKANMLAHMETQNKIYNVLTPEQKKQYNANFEKRLTERPAQEGKMPAAAE	soluble
MKVKCEECGETYTLNDGEDPDDYICECGGKLKRETFLRRTALGVGVFSIP	not soluble
